Experimental findings from publication PMC12462528, “Molecular basis of ParA ATPase activation by the CTPase ParB during bacterial chromosome segregation” (Nature Communications, 2025) are described below.

Numbering of substitutions follows the chain as printed. Numbers in names are those of the source.

The labels stand for the following.
T1: ParA (His6-ParA) (Myxococcus xanthus) (UniProt Q1CVJ3)
T1 sequence: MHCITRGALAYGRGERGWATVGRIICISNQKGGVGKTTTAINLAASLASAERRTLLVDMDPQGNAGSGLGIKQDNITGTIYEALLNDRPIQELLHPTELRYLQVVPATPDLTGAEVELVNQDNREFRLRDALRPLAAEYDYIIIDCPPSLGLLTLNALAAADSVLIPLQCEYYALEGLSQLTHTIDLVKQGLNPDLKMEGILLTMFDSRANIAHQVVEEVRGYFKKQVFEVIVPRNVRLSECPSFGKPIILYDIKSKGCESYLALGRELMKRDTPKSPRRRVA

T2: ParA-D60A D60A (Myxococcus xanthus) (UniProt Q1CVJ3)
T2 sequence: T1 sequence with D60A

T3: ParA-R238E (ParA*) R238E (Myxococcus xanthus) (UniProt Q1CVJ3)
T3 sequence: T1 sequence with R238E

T4: ParB (Myxococcus xanthus) (UniProt Q1CVJ4)
T4 sequence: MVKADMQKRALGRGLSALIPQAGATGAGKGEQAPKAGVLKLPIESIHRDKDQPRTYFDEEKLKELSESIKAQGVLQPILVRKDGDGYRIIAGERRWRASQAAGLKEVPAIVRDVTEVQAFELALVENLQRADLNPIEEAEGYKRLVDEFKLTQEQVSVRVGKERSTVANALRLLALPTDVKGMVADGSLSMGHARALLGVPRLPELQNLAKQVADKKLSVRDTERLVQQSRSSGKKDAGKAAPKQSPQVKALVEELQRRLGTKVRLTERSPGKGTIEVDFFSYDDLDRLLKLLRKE

T5: ParB delta21 del1-21 (Myxococcus xanthus) (UniProt Q1CVJ4)
T5 sequence: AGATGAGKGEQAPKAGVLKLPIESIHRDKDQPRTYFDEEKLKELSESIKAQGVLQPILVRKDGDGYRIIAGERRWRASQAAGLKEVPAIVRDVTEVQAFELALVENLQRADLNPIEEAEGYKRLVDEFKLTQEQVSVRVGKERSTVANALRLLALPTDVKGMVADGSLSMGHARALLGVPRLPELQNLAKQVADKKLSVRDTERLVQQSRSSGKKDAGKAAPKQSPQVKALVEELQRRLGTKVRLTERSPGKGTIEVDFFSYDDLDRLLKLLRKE

T6: ParB-Q52A (ParB*) Q52A (Myxococcus xanthus) (UniProt Q1CVJ4)
T6 sequence: T4 sequence with Q52A

T7: ParB-Q52A (Myxococcus xanthus DK1622, UniProt Q1CVJ4 1-296, Q52A)
T7 construct: ParB of Myxococcus xanthus DK1622, variant lacking CTPase activity; Closed clamps formed with CTP and parS DNA; also called CTP hydrolysis-deficient ParB variant; source: E. coli Rosetta(DE3)pLysS, purified (as wild-type ParB)
T7 sequence (looked up): T4 sequence with Q52A

T8: ParB-Q52A-R13K (Myxococcus xanthus DK1622, UniProt Q1CVJ4 1-296, Q52A | R13K)
T8 construct: ParB of Myxococcus xanthus DK1622, ParB-Q52A variant lacking the conserved residue R13; also called ParB* R13K; R13K variant; source: E. coli Rosetta(DE3)pLysS, purified (as wild-type ParB)
T8 sequence (looked up): T4 sequence with R13K, Q52A

T9: ParB-Q52A-R13A (Myxococcus xanthus DK1622, UniProt Q1CVJ4 1-296, Q52A | R13A)
T9 construct: ParB of Myxococcus xanthus DK1622, ParB-Q52A variant lacking the conserved residue R13; also called ParB* R13A; R13A variant; source: E. coli Rosetta(DE3)pLysS, purified (as wild-type ParB)
T9 sequence (looked up): T4 sequence with R13A, Q52A

T10: ParB (wild type) (Myxococcus xanthus DK1622, UniProt Q1CVJ4 1-296)
T10 construct: ParB of Myxococcus xanthus DK1622, translation product of ORF MXAN_7476; In the BLI assays loaded as a closed clamp on parS-containing DNA with CTPγS; also called M. xanthus ParB; wild-type ParB; source: E. coli Rosetta(DE3)pLysS, purified (HisTrap HP, Ulp1 cleavage, HiTrap SP HP)
T10 sequence (looked up): T4 sequence

B1: ParB_(1-20) peptide (peptide, UniProt Q1CVJ4 1-20, looked up)
peptide: MVKADMQKRALGRGLSALIP
notes: also called N-terminal peptide of ParB; source: synthetic peptide
B2: ParA (wild type) (natural protein, Myxococcus xanthus DK1622, UniProt Q1CVJ3 1-283, looked up)
chain: T1 sequence
notes: ParA of Myxococcus xanthus DK1622, translation product of ORF MXAN_7477; No tag cleavage step is described; also called His6-ParA; wild-type ParA; source: E. coli Rosetta(DE3)pLysS, purified (HisTrap HP, HiTrap Q HP)
B3: ParA-R238E (natural protein, Myxococcus xanthus DK1622, UniProt Q1CVJ3 1-283, looked up)
chain: T1 sequence with R238E
notes: ParA of Myxococcus xanthus DK1622, translation product of ORF MXAN_7477; Purified as His6-ParA; no tag cleavage step is described; also called His6-ParA-R238E; source: E. coli Rosetta(DE3)pLysS, purified (HisTrap HP, HiTrap Q HP)
B4: His6-ParA_(21-274)-D60A (domain or fragment, Myxococcus xanthus DK1622, UniProt Q1CVJ3 21-274, looked up)
chain: VGRIICISNQKGGVGKTTTAINLAASLASAERRTLLVDMAPQGNAGSGLGIKQDNITGTIYEALLNDRPIQELLHPTELRYLQVVPATPDLTGAEVELVNQDNREFRLRDALRPLAAEYDYIIIDCPPSLGLLTLNALAAADSVLIPLQCEYYALEGLSQLTHTIDLVKQGLNPDLKMEGILLTMFDSRANIAHQVVEEVRGYFKKQVFEVIVPRNVRLSECPSFGKPIILYDIKSKGCESYLALGRELMKRDT
notes: For NMR the protein was 2H/13C/15N-labelled; source: E. coli Rosetta(DE3)pLysS, purified (as His6-ParA)

Series [1] deals with T1, ParA (His6-ParA) (Myxococcus xanthus). Nature of the series: BLI. As to conditions: BLI: 25 mM HEPES/KOH pH 7.6, 100 mM KCl (150 or 500 mM where stated), 10 mM MgSO4, 1 mM DTT, 10 mM (so in the source) BSA, 0.01% Tween 20; temperature not stated.
Series [2] has as its target T2, ParA-D60A D60A (Myxococcus xanthus). As to the kind of experiment: BLI. The conditions noted are these: BLI: 25 mM HEPES/KOH pH 7.6, 100 mM KCl (150 or 500 mM where stated), 10 mM MgSO4, 1 mM DTT, 10 mM (so in the source) BSA, 0.01% Tween 20; temperature not stated.
Series [3] has as its target T3, ParA-R238E (ParA*) R238E (Myxococcus xanthus). As to the kind of experiment: BLI. As to conditions: BLI: 25 mM HEPES/KOH pH 7.6, 100 mM KCl (150 or 500 mM where stated), 10 mM MgSO4, 1 mM DTT, 10 mM (so in the source) BSA, 0.01% Tween 20; temperature not stated.
For series [4], the target named is T4, ParB (Myxococcus xanthus). Nature of the series: BLI. The conditions noted are these: BLI: 25 mM HEPES/KOH pH 7.6, 100 mM KCl (150 or 500 mM where stated), 10 mM MgSO4, 1 mM DTT, 10 mM (so in the source) BSA, 0.01% Tween 20; temperature not stated.
Series [5] has as its target T5, ParB delta21 del1-21 (Myxococcus xanthus). Nature of the series: BLI. The conditions noted are these: BLI: 25 mM HEPES/KOH pH 7.6, 100 mM KCl (150 or 500 mM where stated), 10 mM MgSO4, 1 mM DTT, 10 mM (so in the source) BSA, 0.01% Tween 20; temperature not stated.
Series [6] deals with T6, ParB-Q52A (ParB*) Q52A (Myxococcus xanthus). As to the kind of experiment: BLI. The conditions noted are these: BLI: 25 mM HEPES/KOH pH 7.6, 100 mM KCl (150 or 500 mM where stated), 10 mM MgSO4, 1 mM DTT, 10 mM (so in the source) BSA, 0.01% Tween 20; temperature not stated.
Series [7] deals with B2. As to the kind of experiment: HDX-MS; 50 µM ParA or ParA-D60A with 1 mM ATP, with or without 1 mM ParB_(1-20) and/or 1 mg/mL salmon sperm DNA; 25 °C (Datasets 1 and 2). The conditions noted are these: both partners purified.
Series [8] addresses B4. As to the kind of experiment: NMR titration; 2H/13C/15N-labelled ParA_(21-274)-D60A (300 µM) titrated with unlabelled ParB_(1-20) to 1:5.8; TROSY 1H-15N HSQC, 298 K, 50 mM HEPES pH 6.8, 150 mM KCl, 5 mM MgSO4, 1 mM DTT, 1 mM ATP. The conditions noted are these: both partners purified.
The target of series [9] is T7, ParB-Q52A. Nature of the series: BLI; ParB-Q52A (10 µM) loaded on closed parS DNA on the biosensor; ParA variants (5 µM) in solution with ATP (1 mM) and 500 mM KCl. As to conditions: both partners purified. A general note: BLI is a label-free optical method that tracks binding on a fibre tip over time.
Series [10] deals with the molecule itself. Nature of the series: SEC; ParA proteins at 2.5 mg/mL (75 µM) in 25 mM Tris/HCl, 200 mM KCl, 5 mM MgSO4, 2 mM DTT, pH 7.4; Superdex 75 3.2/300; monomer to dimer.
Series [11] deals with T8, ParB-Q52A-R13K. Nature of the series: BLI; ParB-Q52A variants loaded on closed parS DNA on the biosensor with CTP; ParA-R238E (5 µM) in solution with ATP and CTP (1 mM each). As to conditions: both partners purified.
Series [12] has as its target T9, ParB-Q52A-R13A. Described as above. As to conditions: both partners purified.
The target of series [13] is T10, ParB (wild type). As to the kind of experiment: BLI; double-biotinylated 234-bp parS DNA on streptavidin biosensor, loaded with ParB or its derivatives (10 µM) and 1 mM CTPγS; ParA-R238E variants in solution with 1 mM ATP; 25 mM HEPES/KOH pH 7.6, 100 mM KCl, 10 mM MgSO4, 1 mM DTT; apparent KD. As to conditions: both partners purified.
Series [14] deals with the molecule itself. As to the kind of experiment: crystal structure; His6-ParA_(21-274)-D60A (1 mM) with 10 mM ATP and 5 mM ParB_(1-20), sitting drop, 20 °C; crystals held only the ParA dimer with ATP.

As to “TCCGCTTGGCGTGAGTTCCTGACGCTTGGTGGGAAGGATGCGCGTGCTGATGCGTGCACCTCAGTGAAGTGGATGGCGCGGCTGCTCATGCGCGGGTTGCTCAGCGCCTGTTCCACGTGGAACGCGGGATGGATTGATGGTGGGCACGCGCGCAGCGCCGGAGAGTTCGCTGACGGCTCCGCGTTCAGGCTCGTGATGCGCTCATGGTTCATGGAGTGGTGAGTGCTCCACCGG (double strand) [234-bp parS fragment, closed on biosensor]”, the Kd in series [1] was 400 nM. For the same molecule, the binding entry in series [2] is recorded as “binds”; in series [3], “no binding”; in series [4] it was “binds”; in series [5], “binds”; in [6] it was “binds”.

As to B1, the binding result in [7] and in series [8] was “binds” in each case.

As to B2, the binding result in series [9] and in series [10] was “binds” throughout.

For B3, the binding result in series [11] and in series [12] was “binds” in each case. In addition, the Kd in [13] was about 1000 nM.

Take B4: the binding result in series [14] is listed as “binds”.
